Reference: patent US20260167721A1 (ABLEXIS, published 2026)

What was measured:
[1] = biological target: T1, CD3 on human donor PBMC / Pan T effector cells (human, UniProt P07766 23-207; P09693 23-182; P04234 22-171; P20963 22-164); assay: cell-based or functional assay
[2] = biological target: T1, CD3 on human donor PBMC / Pan T …; assay: cell-based or functional assay; remark: listed apart in the source

T1 sequence (P07766 23-207, chain 1 of 4): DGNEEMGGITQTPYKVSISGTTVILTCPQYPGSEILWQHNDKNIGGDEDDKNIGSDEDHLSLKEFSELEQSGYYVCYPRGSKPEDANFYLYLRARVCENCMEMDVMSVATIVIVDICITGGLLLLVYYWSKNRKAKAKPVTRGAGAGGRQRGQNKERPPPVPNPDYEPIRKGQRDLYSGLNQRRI
T1 sequence (P09693 23-182, chain 2 of 4): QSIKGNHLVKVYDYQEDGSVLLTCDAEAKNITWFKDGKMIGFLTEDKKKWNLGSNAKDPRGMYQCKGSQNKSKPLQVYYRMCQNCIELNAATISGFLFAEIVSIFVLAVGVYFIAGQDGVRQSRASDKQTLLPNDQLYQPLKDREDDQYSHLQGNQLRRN
T1 sequence (P04234 22-171, chain 3 of 4): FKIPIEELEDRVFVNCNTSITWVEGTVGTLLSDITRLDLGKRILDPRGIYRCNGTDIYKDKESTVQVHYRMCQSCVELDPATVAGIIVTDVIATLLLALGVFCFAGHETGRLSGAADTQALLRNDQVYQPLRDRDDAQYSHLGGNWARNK
T1 sequence (P20963 22-164, chain 4 of 4): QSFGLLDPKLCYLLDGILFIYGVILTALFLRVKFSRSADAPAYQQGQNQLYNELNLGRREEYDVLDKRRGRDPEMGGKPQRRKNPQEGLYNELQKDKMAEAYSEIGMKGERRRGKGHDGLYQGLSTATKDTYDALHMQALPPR

B1: CD3 × CD33-BspAb105 (bispecific antibody)
chain 1: SYELTQPPSVSVSPGQTARITCSGDALPKKYAYWYQQKSGQAPVLVIYEDSKRPSGIPERFSGSSSGTMATLTISGAQVEDEADYYCYSTDSSGNHRVFGCGTKLTVLGGGGSGGGGSGGGGSGGGGSEVQLVESGGGLVKPGGSLRLSCAASGFTFSYYSMNWVRQAPGKCLEWVSSISRSTTYIYYADSVKGRFTISRDNAKNSLYLQMNSLRAEDTAVYYCARDGKGAIFLDYWGQGTLVTVSSDKTHTCPPCPAPEFEGGPSVFLFPPKPKDTLMISRTPEVTCVVVDVSHEDPEVKFNWYVDGVEVHNAKTKPREEQYNSTYRVVSVLTVLHQDWLNGKEYKCKVSNKALPASIEKTISKAKGQPREPQVYTLPPCREEMTKNQVSLWCLVKGFYPSDIAVEWESNGQPENNYKTTPPVLDSDGSFFLYSKLTVDKSRWQQGNVFSCSVMHEALHNHYTQKSLSLSPGK
chain 2: EVQLVQSGAEVKKPGSSVKVSCKASGYTITDSNIHWVRQAPGQSLEWIGYIYPYNGGTDYNQKFKNRATLTVDNPTNTAYMELSSLRSEDTAFYYCVNGNPWLAYWGQGTLVTVSSASTKGPSVFPLAPSSKSTSGGTAALGCLVKDYFPEPVTVSWNSGALTSGVHTFPAVLQSSGLYSLSSVVTVPSSSLGTQTYICNVNHKPSNTKVDKRVEPKSCDKTHTCPPCPAPEFEGGPSVFLFPPKPKDTLMISRTPEVTCVVVDVSHEDPEVKFNWYVDGVEVHNAKTKPREEQYNSTYRVVSVLTVLHQDWLNGKEYKCKVSNKALPASIEKTISKAKGQPREPQVCTLPPSREEMTKNQVSLSCAVKGFYPSDIAVEWESNGQPENNYKTTPPVLDSDGSFFLVSKLTVDKSRWQQGNVFSCSVMHEALHNRFTQKSLSLSPGK
chain 3: DIQLTQSPSTLSASVGDRVTITCRASESLDNYGIRFLTWFQQKPGKAPKLLMYAASNQGSGVPSRFSGSGSGTEFTLTISSLQPDDFATYYCQQTKEVPWSFGQGTKVEVKRTVAAPSVFIFPPSDEQLKSGTASVVCLLNNFYPREAKVQWKVDNALQSGNSQESVTEQDSKDSTYSLSSTLTLSKADYEKHKVYACEVTHQGLSSPVTKSFNRGEC
- Cytokine Release Assay (TNFα) Donor 0 gMFI max [1]: 5210 gMFI
- Cytokine Release Assay (TNFα) Donor 1 gMFI max [1]: 4470 gMFI
- Cytokine Release Assay (TNFα) Donor 2 gMFI max [1]: 5500 gMFI
- Cytokine Release Assay (TNFα) Donor 3 gMFI max [1]: 4390 gMFI
- Cytokine Release Assay (IL2) Donor 0 EC50 [2]: 0.454 nM
- Cytokine Release Assay (IL2) Donor 0 gMFI max [2]: 16900 gMFI
- Cytokine Release Assay (IL2) Donor 1 EC50 [2]: 0.232 nM
- Cytokine Release Assay (IL2) Donor 1 gMFI max [2]: 13400 gMFI
- Cytokine Release Assay (IL2) Donor 2 gMFI max [2]: 15900 gMFI
- Cytokine Release Assay (IL2) Donor 3 EC50 [2]: 0.141 nM
- Cytokine Release Assay (IL2) Donor 3 gMFI max [2]: 18000 gMFI

B2: CD3 × CD33-BspAb115 (bispecific antibody)
chain 1: NFMLTQPHSVSESPGKTVTISCTRTSGSIASNYVQWYQQRPGSSPTTVIYEDNQRPSGVPDRFSGSIDSSSNSASLTISGLKTEDEAAYYCQSYDRSNRVFGCGTKLTVLGGGGSGGGGSGGGGSGGGGSQVQLQESGPGLVKPSETLSLTCTVSGGSISSYYWSWIRQPAGKCLEWIGRIYTSGSTKYNPSLKSRVTMSVDTSKNQFSLKLISVTAADTAVYFCARERIRDLYFDYWGQGTLVTVSSDKTHTCPPCPAPEFEGGPSVFLFPPKPKDTLMISRTPEVTCVVVDVSHEDPEVKFNWYVDGVEVHNAKTKPREEQYNSTYRVVSVLTVLHQDWLNGKEYKCKVSNKALPASIEKTISKAKGQPREPQVYTLPPCREEMTKNQVSLWCLVKGFYPSDIAVEWESNGQPENNYKTTPPVLDSDGSFFLYSKLTVDKSRWQQGNVFSCSVMHEALHNHYTQKSLSLSPGK
chain 2: EVQLVQSGAEVKKPGSSVKVSCKASGYTITDSNIHWVRQAPGQSLEWIGYIYPYNGGTDYNQKFKNRATLTVDNPTNTAYMELSSLRSEDTAFYYCVNGNPWLAYWGQGTLVTVSSASTKGPSVFPLAPSSKSTSGGTAALGCLVKDYFPEPVTVSWNSGALTSGVHTFPAVLQSSGLYSLSSVVTVPSSSLGTQTYICNVNHKPSNTKVDKRVEPKSCDKTHTCPPCPAPEFEGGPSVFLFPPKPKDTLMISRTPEVTCVVVDVSHEDPEVKFNWYVDGVEVHNAKTKPREEQYNSTYRVVSVLTVLHQDWLNGKEYKCKVSNKALPASIEKTISKAKGQPREPQVCTLPPSREEMTKNQVSLSCAVKGFYPSDIAVEWESNGQPENNYKTTPPVLDSDGSFFLVSKLTVDKSRWQQGNVFSCSVMHEALHNRFTQKSLSLSPGK
chain 3: DIQLTQSPSTLSASVGDRVTITCRASESLDNYGIRFLTWFQQKPGKAPKLLMYAASNQGSGVPSRFSGSGSGTEFTLTISSLQPDDFATYYCQQTKEVPWSFGQGTKVEVKRTVAAPSVFIFPPSDEQLKSGTASVVCLLNNFYPREAKVQWKVDNALQSGNSQESVTEQDSKDSTYSLSSTLTLSKADYEKHKVYACEVTHQGLSSPVTKSFNRGEC
- Cytokine Release Assay (TNFα) Donor 0 EC50 [1]: 0.0814 nM
- Cytokine Release Assay (TNFα) Donor 0 gMFI max [1]: 91600 gMFI
- Cytokine Release Assay (TNFα) Donor 1 EC50 [1]: 0.0553 nM
- Cytokine Release Assay (TNFα) Donor 1 gMFI max [1]: 13000 gMFI
- Cytokine Release Assay (TNFα) Donor 2 EC50 [1]: 0.0452 nM
- Cytokine Release Assay (TNFα) Donor 2 gMFI max [1]: 24100 gMFI
- Cytokine Release Assay (TNFα) Donor 3 EC50 [1]: 0.046 nM
- Cytokine Release Assay (TNFα) Donor 3 gMFI max [1]: 48600 gMFI
- Cytokine Release Assay (IL2) Donor 0 EC50 [2]: 0.206 nM
- Cytokine Release Assay (IL2) Donor 0 gMFI max [2]: 242000 gMFI
- Cytokine Release Assay (IL2) Donor 1 EC50 [2]: 0.0755 nM
- Cytokine Release Assay (IL2) Donor 1 gMFI max [2]: 99300 gMFI
- Cytokine Release Assay (IL2) Donor 2 EC50 [2]: 0.0806 nM
- Cytokine Release Assay (IL2) Donor 2 gMFI max [2]: 45200 gMFI
- Cytokine Release Assay (IL2) Donor 3 EC50 [2]: 0.0479 nM
- Cytokine Release Assay (IL2) Donor 3 gMFI max [2]: 300000 gMFI

B3: High affinity Control (Control Humanized anti-CD3 (high affinity) scFv-Fc knob/TM x gemtuzumab) (bispecific antibody)
chain: EVQLVESGGGLVQPGGSLRLSCAASGFTFSTYAMNWVRQAPGKGLEWVGRIRSKYNNYATYYADSVKGRFTISRDDSKNTLYLQMNSLRAEDTAVYYCVRHGNFGDSYVSWFAYWGQGTLVTVSSGKPGSGKPGSGKPGSGKPGSQAVVTQEPSLTVSPGGTVTLTCGSSTGAVTTSNYANWVQQKPGKSPRGLIGGTNKRAPGVPARFSGSLLGGKAALTISGAQPEDEADYYCALWYSNHWVFGGGTKLTVLGGGGSDKTHTCPPCPAPEFEGGPSVFLFPPKPKDTLMISRTPEVTCVVVDVSHEDPEVKFNWYVDGVEVHNAKTKPREEQYNSTYRVVSVLTVLHQDWLNGKEYKCKVSNKALPASIEKTISKAKGQPREPQVYTLPPCREEMTKNQVSLWCLVKGFYPSDIAVEWESNGQPENNYKTTPPVLDSDGSFFLYSKLTVDKSRWQQGNVFSCSVMHEALHNHYTQKSLSLSPGK
heavy: EVQLVQSGAEVKKPGSSVKVSCKASGYTITDSNIHWVRQAPGQSLEWIGYIYPYNGGTDYNQKFKNRATLTVDNPTNTAYMELSSLRSEDTAFYYCVNGNPWLAYWGQGTLVTVSSASTKGPSVFPLAPSSKSTSGGTAALGCLVKDYFPEPVTVSWNSGALTSGVHTFPAVLQSSGLYSLSSVVTVPSSSLGTQTYICNVNHKPSNTKVDKRVEPKSCDKTHTCPPCPAPEFEGGPSVFLFPPKPKDTLMISRTPEVTCVVVDVSHEDPEVKFNWYVDGVEVHNAKTKPREEQYNSTYRVVSVLTVLHQDWLNGKEYKCKVSNKALPASIEKTISKAKGQPREPQVCTLPPSREEMTKNQVSLSCAVKGFYPSDIAVEWESNGQPENNYKTTPPVLDSDGSFFLVSKLTVDKSRWQQGNVFSCSVMHEALHNRFTQKSLSLSPGK
light: DIQLTQSPSTLSASVGDRVTITCRASESLDNYGIRFLTWFQQKPGKAPKLLMYAASNQGSGVPSRFSGSGSGTEFTLTISSLQPDDFATYYCQQTKEVPWSFGQGTKVEVKRTVAAPSVFIFPPSDEQLKSGTASVVCLLNNFYPREAKVQWKVDNALQSGNSQESVTEQDSKDSTYSLSSTLTLSKADYEKHKVYACEVTHQGLSSPVTKSFNRGEC
- Cytokine Release Assay (TNFα) Donor 0 EC50 [1]: 0.459 nM
- Cytokine Release Assay (TNFα) Donor 0 gMFI max [1]: 231000 gMFI
- Cytokine Release Assay (TNFα) Donor 1 EC50 [1]: 13.1 nM
- Cytokine Release Assay (TNFα) Donor 1 gMFI max [1]: 113000 gMFI
- Cytokine Release Assay (TNFα) Donor 2 EC50 [1]: 5.98 nM
- Cytokine Release Assay (TNFα) Donor 2 gMFI max [1]: 125000 gMFI
- Cytokine Release Assay (TNFα) Donor 3 EC50 [1]: 0.212 nM
- Cytokine Release Assay (TNFα) Donor 3 gMFI max [1]: 129000 gMFI
- Cytokine Release Assay (IL2) Donor 0 EC50 [2]: 0.456 nM
- Cytokine Release Assay (IL2) Donor 0 gMFI max [2]: 377000 gMFI
- Cytokine Release Assay (IL2) Donor 1 EC50 [2]: 1.64 nM
- Cytokine Release Assay (IL2) Donor 1 gMFI max [2]: 179000 gMFI
- Cytokine Release Assay (IL2) Donor 2 EC50 [2]: 16.7 nM
- Cytokine Release Assay (IL2) Donor 2 gMFI max [2]: 121000 gMFI
- Cytokine Release Assay (IL2) Donor 3 EC50 [2]: 0.172 nM
- Cytokine Release Assay (IL2) Donor 3 gMFI max [2]: 347000 gMFI

B4: CD3 × CD33-BspAb125 (bispecific antibody)
chain 1: not shown
chain 2: EVQLVQSGAEVKKPGSSVKVSCKASGYTITDSNIHWVRQAPGQSLEWIGYIYPYNGGTDYNQKFKNRATLTVDNPTNTAYMELSSLRSEDTAFYYCVNGNPWLAYWGQGTLVTVSSASTKGPSVFPLAPSSKSTSGGTAALGCLVKDYFPEPVTVSWNSGALTSGVHTFPAVLQSSGLYSLSSVVTVPSSSLGTQTYICNVNHKPSNTKVDKRVEPKSCDKTHTCPPCPAPEFEGGPSVFLFPPKPKDTLMISRTPEVTCVVVDVSHEDPEVKFNWYVDGVEVHNAKTKPREEQYNSTYRVVSVLTVLHQDWLNGKEYKCKVSNKALPASIEKTISKAKGQPREPQVCTLPPSREEMTKNQVSLSCAVKGFYPSDIAVEWESNGQPENNYKTTPPVLDSDGSFFLVSKLTVDKSRWQQGNVFSCSVMHEALHNRFTQKSLSLSPGK
chain 3: DIQLTQSPSTLSASVGDRVTITCRASESLDNYGIRFLTWFQQKPGKAPKLLMYAASNQGSGVPSRFSGSGSGTEFTLTISSLQPDDFATYYCQQTKEVPWSFGQGTKVEVKRTVAAPSVFIFPPSDEQLKSGTASVVCLLNNFYPREAKVQWKVDNALQSGNSQESVTEQDSKDSTYSLSSTLTLSKADYEKHKVYACEVTHQGLSSPVTKSFNRGEC
- Cytokine Release Assay (TNFα) Donor 0 EC50 [1]: 0.475 nM
- Cytokine Release Assay (TNFα) Donor 0 gMFI max [1]: 39600 gMFI
- Cytokine Release Assay (TNFα) Donor 1 gMFI max [1]: 5100 gMFI
- Cytokine Release Assay (TNFα) Donor 2 EC50 [1]: 0.054 nM
- Cytokine Release Assay (TNFα) Donor 2 gMFI max [1]: 12000 gMFI
- Cytokine Release Assay (TNFα) Donor 3 EC50 [1]: 0.0446 nM
- Cytokine Release Assay (TNFα) Donor 3 gMFI max [1]: 17800 gMFI
- Cytokine Release Assay (IL2) Donor 0 EC50 [2]: 0.105 nM
- Cytokine Release Assay (IL2) Donor 0 gMFI max [2]: 52800 gMFI
- Cytokine Release Assay (IL2) Donor 1 EC50 [2]: 0.102 nM
- Cytokine Release Assay (IL2) Donor 1 gMFI max [2]: 22300 gMFI
- Cytokine Release Assay (IL2) Donor 2 EC50 [2]: 0.115 nM
- Cytokine Release Assay (IL2) Donor 2 gMFI max [2]: 25100 gMFI
- Cytokine Release Assay (IL2) Donor 3 gMFI max [2]: 65800 gMFI
